B2: recombinant HC1 (rHC1), wild type; heavy chain 1 of inter-α-inhibitor (natural protein, human, UniProt P19827 35-672, looked up)
chain: SKSSEKRQAVDTAVDGVFIRSLKVNCKVTSRFAHYVVTSQVVNTANEAREVAFDLEIPKTAFISDFAVTADGNAFIGDIKDKVTAWKQYRKAAISGENAGLVRASGRTMEQFTIHLTVNPQSKVTFQLTYEEVLKRNHMQYEIVIKVKPKQLVHHFEIDVDIFEPQGISKLDAQASFLPKELAAQTIKKSFSGKKGHVLFRPTVSQQQSCPTCSTSLLNGHFKVTYDVSRDKICDLLVANNHFAHFFAPQNLTNMNKNVVFVIDISGSMRGQKVKQTKEALLKILGDMQPGDYFDLVLFGTRVQSWKGSLVQASEANLQAAQDFVRGFSLDEATNLNGGLLRGIEILNQVQESLPELSNHASILIMLTDGDPTEGVTDRSQILKNVRNAIRGRFPLYNLGFGHNVDFNFLEVMSMENNGRAQRIYEDHDATQQLQGFYSQVAKPLLVDVDLQYPQDAVLALTQNHHKQYYEGSEIVVAGRIADNKQSSFKADVQAHGEGQEFSITCLVDEEEMKKLLRERGHMLENHVERLWAYLTIQELLAKRMKVDREERANLSSQALQMSLDYGFVTPLTSMSIRGMADQDGLKPTIDKPSEDSPPLEMLGPRRTFVLSALQPSPTHSSSNTQRLPDRVTGVDTD

The target of series [1] is B2. The series can be described thus: SPR. For orientation: SPR reads the build-up and loss of mass on a sensor chip optically.
Series [2] concerns the molecule itself. The series can be described thus: AUC.
Series [3] concerns the molecule itself. The series can be described thus: AUC. The source holds these as a separate data set.

The source of these data is article doi:10.1101/695700 (bioRxiv, 2019).

As usually defined, the Kd is the constant that tells how readily two partners part at equilibrium. For orientation: stoichiometry N means the number of molecules, sites or subunits per partner or assembly.

B1: vitronectin (natural protein, UniProt P04004 20-478, looked up)
chain: DQESCKGRCTEGFNVDKKCQCDELCSYYQSCCTDYTAECKPQVTRGDVFTMPEDEYTVYDDGEEKNNATVHEQVGGPSLTSDLQAQSKGNPEQTPVLKPEEEAPAPEVGASKPEGIDSRPETLHPGRPQPPAEEELCSGKPFDAFTDLKNGSLFAFRGQYCYELDEKAVRPGYPKLIRDVWGIEGPIDAAFTRINCQGKTYLFKGSQYWRFEDGVLDPDYPRNISDGFDGIPDNVDAALALPAHSYSGRERVYFFKGKQYWEYQFQHQPSQEECEGSSLSAVFEHFAMMQRDSWEDIFELLFWGRTSAGTRQPQFISRDWHGVPGQVDAAMAGRIYISGMAPRPSLAKKQRFRHRNRKGYRSQRGHSRGRNQNSRRPSRATWLSLFSSEESNLGANNYDDYRMDWLVPATCEPIQSVFFFSGDKYYRVNLRTRRVDTVDPPYPRSIAQYWLGCPAPGHL
For B1, in series [1], the Kd is about 0.0002 µM.

On to B2, for which the “stoichiometry N” value in “AUC [2]” worked out at 2. For the same molecule, the Kd in the series “AUC [3]” is 35.3 µM.
